For test [1], the target named is T1, HA-GCN4 hAPRIL (amino acid residues 105-250) (human, UniProt O75888 105-250).
T1 construct: Bought (R&D Systems); also called HA-tagged GCN4 human APRIL; HA-GCN4-huAPRIL; not shown: N-terminal HA tag; GCN4 isoleucine zipper oligomerization domain
T1 sequence: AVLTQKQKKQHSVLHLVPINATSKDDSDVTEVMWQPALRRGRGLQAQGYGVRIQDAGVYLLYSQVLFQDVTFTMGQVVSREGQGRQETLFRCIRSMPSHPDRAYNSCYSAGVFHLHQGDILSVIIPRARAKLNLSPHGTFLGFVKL
The experiment in a line: blocking ELISA, 4-parameter fit; blocked: human APRIL binding to human TACI-Fc. As for the experimental part: (§1) Recombinant TACI-Fc or BCMA-Fc was coated on 96 well plates in 0.1 M carbonate-bicarbonate buffer (pH 9.6), overnight at 4° C. Plates were washed three times with 1×PBST (PBS+0.025% Tween 20) followed by blocking with 1% BSA in 1×PBS, 37° C. for 1 hour. All subsequent wash steps were carried out with 1×PBST. To assess antibody blocking, either 15 ng/mL or 50 ng/mL HA-GCN4-huAPRIL was preincubated with varying antibody concentrations ranging from 0.03-30 μg/mL in binding buffer comprised of 1% BSA and 0.025% Tween-20 in 1×PBS. Preincubation was carried out at 30° C. for 1 hour with mixing. Antibody-APRIL premix with 50 ng/mL APRIL or 15 ng/mL APRIL was then added to TACI-Fc coated or BCMA-Fc coated plates, respectively, and incubated for an additional hour at 30° C. HA-tagged APRIL binding to either receptor was quantified using a goat polyclonal anti-HA tag-HRP antibody (Abcam) added at a 1:10000 dilution followed by colorimetric development using 100 μl/well of freshly prepared TMB substrate (KPL) carried out for up to 30 minutes at room temperature before quenching enzymatic reaction by the addition of 1N sulfuric acid. ELISA signal was quantified by absorbance at 450 nm. ELISA data was analyzed by non-linear regression. IC₅₀ values were calculated based on a 4 parameter fit of antibody titration curves. […] Non-blocking antibodies Aprly-1 or Aprly-5 (Enzo Biosciences) were used as negative controls. Mouse specific, blocking antibody aprily-1-1 (Adipogen) was generally used as a positive control in experiments using mouse APRIL (HA-GCN4-mAPRIL).
For orientation: ELISA stands for enzyme-linked immunosorbent assay.

Test [2] deals with human BAFF (TNFSF13B, AB Biosciences) (human, UniProt Q9Y275 134-285, limits assumed). The experiment in a line: indirect ELISA, cytokine coated. As for the experimental part:
(§2) Selected anti-APRIL antibodies were evaluated for potential cross-reactivity with other members of the TNFa superfamily (TNFSF) family of cytokines, including: human TNFα (TNFSF2; Adipogen), human […] (TNFSF4, Adipogen), human FasL (TNFSF6, Adipogen), human TRAIL (TNFSF10, Adipogen), human RANKL (TNFSF11; Adipogen), human Tweak (TNFSF12; Abcam), human and mouse BAFF (TNFSF13B, AB Biosciences and Adipogen, respectively), and human LIGHT (TNFSF14, Adipogen). These cytokines share variable degree of sequence as well as higher order structural homologies. Among them, BAFF appears to be the most closely related to APRIL, with 29% identity and 53% amino acid sequence similarity.
(§3) Binding was evaluated by an indirect ELISA protocol using similar methods described for evaluation of APRIL binding; cytokines were immobilized to ELISA plate at 50 ng per well and then exposed to a solution of each of the test antibodies at a fixed concentration of 10 μg/ml Anti-human or anti-mouse Ig-HRP polyclonal antibody conjugates (Jackson Laboratories) were used for detection of antibody binding. The results presented in FIG. 36 indicated eleven of the twelve antibodies tested in this assay to specifically bind APRIL with no measurable cross-reactivity with the other TNFSF members substantially above assay background.

Test [3] concerns the target T2, human Tweak (TNFSF12; Abcam) (human, UniProt O43508 94-249, limits assumed).
T2 sequence (looked up): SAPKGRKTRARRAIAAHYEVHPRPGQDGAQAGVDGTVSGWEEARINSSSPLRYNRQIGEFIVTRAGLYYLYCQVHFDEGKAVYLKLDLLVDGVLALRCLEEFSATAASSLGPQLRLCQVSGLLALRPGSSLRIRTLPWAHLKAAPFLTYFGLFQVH
Briefly: indirect ELISA, cytokine coated. As for the experimental part: as §2, §3

The target in test [4] is T3, human RANKL (TNFSF11; Adipogen) (human, UniProt O14788 152-317, limits assumed).
T3 sequence (looked up): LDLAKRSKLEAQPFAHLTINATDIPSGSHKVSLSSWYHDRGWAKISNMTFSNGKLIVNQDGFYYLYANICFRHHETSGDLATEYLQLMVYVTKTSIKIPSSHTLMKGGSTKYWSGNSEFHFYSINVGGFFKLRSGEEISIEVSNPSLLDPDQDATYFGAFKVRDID
Briefly: indirect ELISA, cytokine coated. How it is done: as §2, §3

Test [5] addresses human TNFα (TNFSF2; Adipogen) (human, UniProt P01375 85-233, limits assumed). Briefly: indirect ELISA, cytokine coated. As for the experimental part:
as §2, §3

Test [6] addresses mouse BAFF (TNFSF13B, Adipogen) (mouse, UniProt Q9WU72 127-309, limits assumed). Briefly: indirect ELISA, cytokine coated. How it is done: as §2, §3
Test [7] concerns the target human TRAIL (TNFSF10, Adipogen) (human, UniProt P50591 95-281, limits assumed). The experiment in a line: indirect ELISA, cytokine coated. As for the experimental part: as §2, §3
The target of test [8] is T1, HA-GCN4 hAPRIL (amino acid residues …). The experiment in a line: blocking ELISA; blocked: human APRIL binding to human BCMA-Fc. The arrangement: concentration or dose not given beside the values. As for the experimental part: as §1
Test [9] has as its target T4, HA-GCN4 mAPRIL (amino acid residues 96-241) (mouse, UniProt Q9D777 96-241, Assembles as a homotrimer through the GCN4 zipper; one protomer is given.).
T4 construct: Bought (R&D Systems); also called HA-tagged mouse APRIL (R&D Systems); recombinant mouse APRIL; not shown: N-terminal HA tag and GCN4 isoleucine-zipper trimerisation domain, with any linker, of the bought R&D Systems protein
T4 sequence: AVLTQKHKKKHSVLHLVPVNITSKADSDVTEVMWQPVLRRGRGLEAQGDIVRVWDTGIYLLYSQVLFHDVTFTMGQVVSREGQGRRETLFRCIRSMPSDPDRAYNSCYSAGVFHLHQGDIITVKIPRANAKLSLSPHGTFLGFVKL
The experiment in a line: blocking ELISA; blocked: mouse APRIL binding to BCMA.

human TRAIL (TNFSF10, Adipogen), sequence (P50591 95-281 limits assumed): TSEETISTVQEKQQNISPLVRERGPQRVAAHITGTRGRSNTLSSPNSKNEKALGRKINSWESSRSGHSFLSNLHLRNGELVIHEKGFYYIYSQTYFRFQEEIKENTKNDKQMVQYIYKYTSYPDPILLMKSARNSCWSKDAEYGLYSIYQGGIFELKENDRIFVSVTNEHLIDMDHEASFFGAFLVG
mouse BAFF (TNFSF13B, Adipogen), sequence (Q9WU72 127-309 limits assumed): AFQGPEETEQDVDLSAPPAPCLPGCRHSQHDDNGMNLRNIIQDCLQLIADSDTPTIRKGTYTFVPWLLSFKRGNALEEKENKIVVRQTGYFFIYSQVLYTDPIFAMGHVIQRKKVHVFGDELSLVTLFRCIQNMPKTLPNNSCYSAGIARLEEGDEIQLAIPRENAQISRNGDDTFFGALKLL
human TNFα (TNFSF2; Adipogen), sequence (P01375 85-233 limits assumed): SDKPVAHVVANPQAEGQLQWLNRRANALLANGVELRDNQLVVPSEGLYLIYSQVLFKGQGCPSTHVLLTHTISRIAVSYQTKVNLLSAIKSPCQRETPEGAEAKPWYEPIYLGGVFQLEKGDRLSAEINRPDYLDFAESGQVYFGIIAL
human BAFF (TNFSF13B, AB Biosciences), sequence (Q9Y275 134-285 limits assumed): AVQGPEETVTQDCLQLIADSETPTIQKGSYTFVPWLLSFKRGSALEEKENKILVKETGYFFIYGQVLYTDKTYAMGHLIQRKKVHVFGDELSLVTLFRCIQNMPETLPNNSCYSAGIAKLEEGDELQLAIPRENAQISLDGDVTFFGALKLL

B1: monoclonal antibody 2218 (antibody, mouse IgG2, V domains shown)
VH: DVQLQESGPGLVKPSQSLSLTCSVTGYSITSGYYWNWIRQFPGNKLEWMGYISYDGYNNYNPSLKNRISITRDTSKNQFFLKLNSVTTEDTATYYCANYYDYEDWYFGVWGTGTTVTVSS
VL: DIVLTQSPASLAMSLGKRATISCRASESVSIIGTNSIHWYQQKPGQPPKLLIYHASNLETGVPARFSGSGSRTDFTLTIDPVEEDDVAIYYCLQSRKIPYTFGGGTKLEIK
By IC50 is commonly meant the concentration that gives 50% inhibition. As usually defined, the % Inhibition is how much of the control response was suppressed. B1 came in with an IC50 in test [1] of 0.74 nM. Further, the binding result in [2], in test [3], in test [4], in [5], in test [6] and in [7] was “no binding (tested: 10 µg/ml (p-1128))” throughout. For the same molecule, the “% Inhibition” value in test [8] was determined as 100%.

B2: monoclonal antibody 3631 (antibody, V domains shown)
VH: EIQLQQSGPELVKPGASVKVSCKASGYSFTDYNIYWVKQSHGKSLEWIGYIDPSNGGPGYNQKFRGKATLTVDKSSSTAFLHLNSLTSEDSAVYYCARRDNYGSGTMDYWGQGTSVTVSS
VL: DIVMTQSQKFMSTSVGDRVSITCKASQNVGTDVSWYQQKPGKSPKPLIYWASNRFTGVPDRFIGSGSGTDFTLTISNVQSEDLADYFCEQYSIYPLTFGAGTKLELK
notes: mouse-derived
On to B2, for which the binding result in test [9] was “binds”; in [3] it was “no binding (tested: 10 µg/ml (p-1128))”; in test [4], “no binding (tested: 10 µg/ml (p-1128))”; in [5], “no binding (tested: 10 µg/ml (p-1128))”; in [7], “no binding (tested: 10 µg/ml (p-1128))”.

B3: monoclonal antibody 3732 (antibody, V domains shown)
VH: EIQLQQSGPELVKPGASVKVSCKASGYSFTDDNMYWVKQSHGKSLEWIGYIDPLNGGTGYNQKFKGKATLTVDKSSSTAFLHLNSLTSEDSAVYYCARRDNYATGTMDYWGQGTSVTVSS
VL: DIVMTQSQKFMSTSVGDRVSITCKASKNVGTDVSWYQQKPGKSPKPLIYWASNRFTGVPDRFTGSGSGTDFTLTINNVQSEDLADYFCEQYSSYPLTFGAGTKLELK
notes: mouse-derived
For the molecule B3, the binding result in test [9] is reported as “binds”; in test [2], “no binding (tested: 10 µg/ml (p-1128))”; in [3], “no binding (tested: 10 µg/ml (p-1128))”; in test [4], “no binding (tested: 10 µg/ml (p-1128))”; in test [5], “no binding (tested: 10 µg/ml (p-1128))”; in test [6], “no binding (tested: 10 µg/ml (p-1128))”. The binding result in test [7] is reported as “no binding (tested: 10 µg/ml (p-1128))”.

B4: monoclonal antibody 4540 (antibody, V domains shown)
VH: QVQLQQSGPELVKPGASVKISCKASGYTFADYYINWVKQRPGQGLEWIGWIFPGSGSTYYNEKFKGKATLTVDKSSSTAYMLLSSLTSEDSAVYFCARGDSGRAMDYWGQGTSVTVSS
VL: DIQMTQSPSSLSASLGGKVTITCKASQDINKYIAWYQHKPGKGPRLLIHYTSTLQSGIPSRFSGSGSGRDYSFSISNLEPEDNATYYCLQYDNLLTFGAGTKLELK
notes: mouse-derived
Consider B4, for which the “IC50 (read off the curve)” value in [9] is roughly 0.3 µg/mL. The binding result in test [2], in test [3], in test [4], in [5], in test [6] and in test [7] was “no binding (tested: 10 µg/ml (p-1128))” throughout.

B5: monoclonal antibody 3833 (antibody, V domains shown)
VH: QVQLQQSGAELVRPGTSVKMSCKAAGYTFTNYWIGWVKQRPGHGLEWIGDIYPGGIGGGYTKYNEKFKGKATLTADTSSSTAYMQLGSLTSEDSAIYFCSRSETGRAMDYWGQGTSVTVSS
VL: DIQMTQSPSSLSASLGGKVTITCKASQDINKYIAWYQHKPGKGPRLLIHYTSTLKPGIPSRFSGSGSGRDYSFSISDLEPEDIATYYCLQYDNLNTFGGGTKLEIK
notes: mouse-derived
With B5, in test [9], the “IC50 (read off the curve)” value was roughly 0.06 µg/mL. Besides, the binding result in [2], in [3], in test [4], in [5], in [6] and in test [7] was “no binding (tested: 10 µg/ml (p-1128))” each time.

B6: 4237 (antibody, V domains shown)
VH: QAHLKESGPGLVAPSQSLSITCTVSGFSLTDYDVHWVRQSPGKGLEWLGVIWNDGSTDYNTAFISRLTISKDNSKSQVFFKMNSLQADDTAIYYCARNWYGGYWFAYWGQGTLVTVSA
VL: DIQMTQSPASLSASAGETVTITCRSSENIYSYLAWYQQKQGKSPQLLVYNANALAEGVPSRFSGSGSVTQFSLKINSLQPEDFGSYYCQHHYGTPFTFGSGTKLEIK
notes: also called monoclonal antibody 4237
Take B6: the binding result in [2], in test [3], in test [4], in [5], in test [6] and in [7] was “no binding (tested: 10 µg/ml (p-1128))” throughout.

The values are drawn from patent US20170145086A1 (VISTERRA, published 2017).
